T1: endogenous human APOL1 (wild-type immortalized podocytes; also JHH-1 cells, kidney and liver tissue) (human, UniProt O14791 28-398)
T1 construct: whole, on cells; Cell or tissue and permeabilization are told under assay; also called podocyte APOL1; endogenous APOL1
T1 sequence (looked up): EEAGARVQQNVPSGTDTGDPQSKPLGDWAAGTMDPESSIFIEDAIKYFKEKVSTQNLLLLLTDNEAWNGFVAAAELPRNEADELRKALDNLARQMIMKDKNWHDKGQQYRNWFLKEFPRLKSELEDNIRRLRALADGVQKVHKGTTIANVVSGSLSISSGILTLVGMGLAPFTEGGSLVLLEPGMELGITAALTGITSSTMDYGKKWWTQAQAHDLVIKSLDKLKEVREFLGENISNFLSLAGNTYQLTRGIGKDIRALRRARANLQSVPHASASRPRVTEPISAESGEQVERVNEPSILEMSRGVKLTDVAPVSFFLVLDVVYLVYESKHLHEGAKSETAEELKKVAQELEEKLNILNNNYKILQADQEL

T2: APOL1-G2 (deletion of N388 and Y389) (human, UniProt O14791 29-398)
T2 construct: expressed in CHO cells (flow cytometry, lysates), COS cells and podocytes; also called iAPOL1-G2; APOL-G2
T2 sequence: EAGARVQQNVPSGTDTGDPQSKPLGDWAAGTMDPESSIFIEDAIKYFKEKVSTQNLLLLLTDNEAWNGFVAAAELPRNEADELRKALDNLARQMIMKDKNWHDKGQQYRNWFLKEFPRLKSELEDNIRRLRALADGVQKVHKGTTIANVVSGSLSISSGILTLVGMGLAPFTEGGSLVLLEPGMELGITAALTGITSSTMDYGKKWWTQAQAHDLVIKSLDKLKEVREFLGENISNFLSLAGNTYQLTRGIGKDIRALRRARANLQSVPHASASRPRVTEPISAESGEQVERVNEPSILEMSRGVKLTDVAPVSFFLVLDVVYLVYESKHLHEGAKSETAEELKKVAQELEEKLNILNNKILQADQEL

T3: circulating APOL1 in normal human serum (human, UniProt O14791 28-398)
T3 construct: mature; Serum of healthy volunteers; lipoprotein-associated; also called serum APOL1; HDL APOL1
T3 sequence (looked up): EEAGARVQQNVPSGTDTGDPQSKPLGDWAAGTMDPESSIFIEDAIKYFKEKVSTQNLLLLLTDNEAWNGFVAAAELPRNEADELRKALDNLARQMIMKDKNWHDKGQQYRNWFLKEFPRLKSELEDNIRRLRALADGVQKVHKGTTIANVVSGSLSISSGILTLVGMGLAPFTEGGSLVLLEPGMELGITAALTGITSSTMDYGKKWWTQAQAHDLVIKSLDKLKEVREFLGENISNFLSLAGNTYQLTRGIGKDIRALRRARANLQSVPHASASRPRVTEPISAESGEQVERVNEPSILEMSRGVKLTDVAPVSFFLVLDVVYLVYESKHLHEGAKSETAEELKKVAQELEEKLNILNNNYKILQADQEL

T4: APOL1 very C-terminal peptide aa 376-398 (human)
T4 peptide: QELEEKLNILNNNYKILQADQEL

T5: APOL1 peptide aa 364-385 (human)
T5 peptide: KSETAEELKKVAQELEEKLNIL


Columns and labels:
[1] = target: T1, endogenous human APOL1 (wild-type …); assay: summary of the Examples: podocyte flow cytometry
Protocol: Cells were harvested with 5 mM EDTA in PBS, washed once with growth media and twice with PBS. Approximately 0.5×10⁶/m1 of cells resuspended in PBS were incubated with anti-APOL1 antibodies for 1 h on ice. Following two PBS washes, 2 μg/ml of Alexa488 anti-mouse or anti-rabbit (Invitrogen A11029 and A21206, respectively) was used for 1 h on ice for detection. Cells were washed twice in PBS and resuspended in PBS with 1 μg/ml propidium iodide. Signals were read in a FACSCalibur3 (Becton Dickinson), with the exception of FIG. 8A and FIG. 14, which used a FACSCelesta, and data was analyzed using FlowJo v8.4.5. Mean fluorescence intensities were plotted in PRISM v7 after subtraction of secondary antibody alone background. For low pH experiments, cells were incubated with the antibodies in the presence of PBS pH 7.0 or PBS pH 5.5 for an hour on ice and detected with secondary antibodies at neutral pH.

[2] = target: T2, APOL1-G2 (deletion of N388 and Y389); assay: flow cytometry, live CHO cells expressing full length native iAPOL1-G2
[3] = target: T3, circulating APOL1 in normal human serum; assay: summary of the Examples: trypanolysis blocking as proxy for serum APOL1
Protocol: The trypanolysis assay used herein to text specificity of antibodies for serum APOL1 is as follows. Trypanosoma brucei brucei were obtained from ATCC and cultured in HMI-9 media containing IMDM (Genentech), heat-inactivated (56° C. for 30 min) FBS (Seradigm IXL9/06807/GEN), 1% serum plus (Sigma 14008C), HMI-9 (Genentech) and 1% hypoxanthine (Genentech). Trypanosome lysis was performed by treating 1×10⁵ Trypanosomes with serial dilutions of NHS or recombinant APOL1 for 16 h in a total of 100 μl. Live cell read out was done by the Alamar Blue assay as per the manufacturer's protocol, (Thermo Fisher, DAL1100). Briefly 10 μl of Alamar Blue was added to each well, incubated at 37° C. for 4 h. Red fluorescence, indicating live trypanosomes, was measured on a SpectraMax® fluorimeter powered by SoftMAX® PRO with excitation at 530 nm and emission 590 nm. For the antibody blocking assay, 1% normal human serum was preincubated with 1-10 μg/ml of anti-APOL1 antibody or media at room temperature for 20 minutes followed by addition of trypanosomes. After 16 h, the Alamar Blue assay was performed as above and background values for media only were subtracted and % blocking calculated by normalizing to no antibody control.
Trypanosoma brucei brucei were obtained under MTA from ATCC and cultured in HMI-9 media containing IMDM (Genentech), heat-inactivated (56° C. for 30 min) FBS (Seradigm IXL9/06807/GEN), 1% serum plus (Sigma 14008C), HMI-9 (Genentech) and 1% hypoxanthine (Genentech). Trypanosome lysis was performed by treating 1×10⁵ Trypanosomes with serial dilutions of NHS or recombinant APOL1 for 16 h in a total of 100 μl. Live cell read out was done by the Alamar Blue assay as per the manufacturer's protocol (30) (Thermo Fisher, DAL1100). Briefly 10 μl of Alamar Blue was added to each well, incubated at 37° C. for 4 h. Red fluorescence, indicating live trypanosomes, was measured on a SpectraMax fluorimeter powered by SoftMAX PRO with excitation at 530 nm and emission 590 nm. For the antibody blocking assay, 1% normal human serum was preincubated with 1-10 μg/ml of anti-APOL1 antibody or media at room temperature for 20 mins followed by addition of trypanosomes.

[4] = target: T4, APOL1 very C-terminal peptide aa 376-398; assay: overlapping ~20-mer peptides (SPR, western blot); antibody named in paragraph 192
Protocol: (§1) Following three TBST washes, anti-mouse (GE Healthcare NA931V, 1:3000) or anti-rabbit HRP (Jackson 711-036-152, 1:8000) was added as secondary antibody. After 1 h, membranes were washed and protein detected using ECL prime (Amersham RPN2232) exposed to MR film (Kodak). Anti-actin HRP-conjugated antibody (clone 13E5, Cell Signaling Technologies 5125S at 1:5000) or calnexin (Abcam Ab22595 at 1:1000) was used as a loading control. For peptide mapping, 2 μl of 1 mM peptides in DMSO were boiled in 5× sample buffer and loaded on 10% Tris-Glycine gel and run using MES buffer. Cell pellets of Sf9 lysates were lysed in native RIPA (NP-40) lysis buffer and run on 10% Tris-Glycine gels.
A 96×96 array-based SPR imaging system (Carterra USA) was used for epitope mapping of anti-ApoL1 monoclonal antibodies. Briefly, purified monoclonal hybridoma antibodies were diluted at 10 μg/ml in 10 mM sodium acetate buffer pH 4.5. Using amine coupling, antibodies were directly immobilized onto a SPR sensorprism CMD 200M chip (XanTec Bioanalytics, Germany) using a Continuous Flow Microspotter (Carterra, USA) to create an array of antibodies. After coupling, the antibodies were blocked with ethanolamine, and primed with running buffer (10 mM HEPES, pH 7.4, 150 mM NaCl, 3 mM EDTA, and 0.005% Tween 20). Epitope mapping was performed by flowing 100 nM of different peptides of APOL1 across the immobilized anti-APOL1 antibodies on the biosensor chip at 25° C. in a running buffer of 10 mM HEPES, pH 7.4, 150 mM NaCl, 3 mM EDTA, and 0.005% Tween 20. After each flow through of the APOL1 peptide, the chip surface was regenerated using 10 mM glycine, pH 2.0.

APOL1 peptide aa 364-385 = target: T5, APOL1 peptide aa 364-385; assay: overlapping ~20-mer peptides (SPR, western blot)
Protocol: as §1
A 96×96 array-based SPR imaging system (Carterra USA) was used for epitope mapping of anti-ApoL1 monoclonal antibodies. Briefly, purified monoclonal hybridoma antibodies were diluted at 10 μg/ml in 10 mM sodium acetate buffer pH 4.5. Using amine coupling, antibodies were directly immobilized onto a SPR sensorprism CMD 200M chip (XanTec Bioanalytics, Germany) using a Continuous Flow Microspotter (Carterra, USA) to create an array of antibodies. After coupling, the antibodies were blocked with ethanolamine, and primed with running buffer (10 mM HEPES, pH 7.4, 150 mM NaCl, 3 mM EDTA, and 0.005% Tween 20). […]

Row | Binder | binding result [1] | binding result [2] | binding result [3] | binding result [4] | binding result (APOL1 peptide aa 364-385)
1 | antibody 4.11H11 (antibody, V domains shown, Mouse mAb, cloned as murine IgG2a LALAPG) VH: EVQVQQSGPELVKPGASMKISCKASGYSFIVYTMNWVKQSHGKNLEWIGLINPYNGGTIYNRKFKGKATLTVDKSSSTAYLELLSLTSEDSAVYYCARGALYRYEGAMDYWGQGTSVIVSS VL: QIVLSQFPAILSASPGEKVTMTCRASSSVIYVHWYQQKPGSSPKPWIYATSNLASGVPARFSGSGSGTSHSLTISRLEAEDTATYYCQQWSSNPLTFGAGTKLEIKR | binds | no binding (tested: 5 µg/ml) | binds | binds | 
2 | antibody 4.29C4 (antibody, V domains shown, Mouse mAb, cloned as murine IgG2a LALAPG) VH: QVQLQQPGAELVRPGASVKLSCKASGYSFANYWMNWVKQRPGQGLEWIGMIHPSDSESRLSQRFKDKATLTVDKSSSTAYMQLNSPTSEDSAVYYCARLDYWGQGTSVTVSS VL: not shown |  |  |  |  | binds
3 | antibody 4.11A10 (antibody, V domains shown, Mouse mAb, cloned as murine IgG2a LALAPG) VH: EVQLQQSGPELVKTGASVKISCKASGYSFTGYFMHWVKQSHGKSLEWIGYISCYNGVSVYNQRFKGKATFTIDTSSSTAYMQFNSLTSEDSAVYYCARDVLRYPRYAVDYWGQGTSVTVSS VL: not shown | binds | no binding (tested: 5 µg/ml) | binds | binds | 

— patent publication US20230071609A1 (Genentech, published 2023)
